The target of experiment [1] is T1, VenL lyase domain (residues 1–212).
T1 chain: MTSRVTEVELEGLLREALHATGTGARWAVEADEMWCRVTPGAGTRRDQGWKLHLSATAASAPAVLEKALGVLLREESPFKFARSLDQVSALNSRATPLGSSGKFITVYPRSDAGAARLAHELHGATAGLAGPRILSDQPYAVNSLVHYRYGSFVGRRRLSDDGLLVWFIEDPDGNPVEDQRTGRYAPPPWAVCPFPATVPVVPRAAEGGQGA
As to the kind of experiment: MST.

Experiment [2] deals with CurKC lyase domain (residues 1–217) (Thermomonospora curvata DSM43183, fluorophore label in the MST assays (position not given)). In words: MST.

From publication PMC9828337 (Angewandte Chemie (International Ed. in English), 2022) come the findings set out here.

B1: VenL kinase domain (residues 213–513) (domain or fragment)
chain: DGSREARGAGAPVLLGGRFAVREAIRHTNKGGVYRGSDVRTGALVVIKEARPHVEADASGHDVRDWLRTEARTLERLRGTGLAPEPLALFEHGGHLFLAQQEVPGVALRTWVAEHFRDAGAERYRVDARAQVGRLVELVAAAHAHGCVLRDFTPGNVMVRPDGELRLIDLELAVLEGDAARPTRVGTPGFSAPERLTGAPVSPTGDYYSLGATACFVLAGKVPNLLPEEPATRAPEQRLAAWLSACAGPLRLPDGLAEMVLGLMKDAPAERWDPARAREALRRADRDDPVTGKPEDSKGSK
With B1, the Kd (as a rule, the concentration at which binding is half-saturated) was determined as 32.3 ± 2.9 µM in experiment [1] and 24.3 ± 3.5 µM in experiment [2].
